Test results from patent publication US20230227508A1 (MIT, published 2023).

Key:
[1] = molecular target: T1, σN-NpuN-Mdm2* bait fusion (residues 17-124 of Mdm2) (UniProt Q00987 17-124); test: split intein σ factor circuit in E. coli, sfGFP read by flow cytometry
T1 construct: range 17-124; also called Mdm2-intein; pTHSS-2132

[2] = molecular target: T1, σN-NpuN-Mdm2* bait fusion (residues …); test: cell-based or functional assay

T1 sequence (Q00987 other isoform, or with tags, fused parts or gaps limits assumed): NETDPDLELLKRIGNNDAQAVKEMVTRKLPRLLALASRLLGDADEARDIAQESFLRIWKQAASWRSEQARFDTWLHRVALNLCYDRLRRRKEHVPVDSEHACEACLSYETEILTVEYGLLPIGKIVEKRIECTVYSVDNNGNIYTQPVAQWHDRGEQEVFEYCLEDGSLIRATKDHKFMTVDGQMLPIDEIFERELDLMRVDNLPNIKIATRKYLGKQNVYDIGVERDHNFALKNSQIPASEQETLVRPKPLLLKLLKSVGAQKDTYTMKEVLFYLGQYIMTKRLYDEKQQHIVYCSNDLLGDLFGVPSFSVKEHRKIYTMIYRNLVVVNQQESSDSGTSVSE

B1: ACE2*-NpuC-σC peptide fusion (N-terminal residues 19-56 of ACE2) (other, not shown: small tags and cut ends)
chain: STIEEQAKTFLDKFNHEAEDLFYQSSLASWNYNTNITERGGKGGPGGRGGVGGGGGIGGGFIASNCWLDTRPAPDEQLEASAQSRRMAQALDQLPDRQREAIVLQYYQELSNTEAAALMQISVEALESLLSRARRNLRSHLAEAPGADLSGRRKP
notes: also called ACE2a1; pAMK-857
Q: What does the source list for B1?
A: binding result [1]: no binding; drop of the fluorescent output of the circuit relative to the PMI/Mdm2* pair [2]: 15 fold
